Source: patent publication US20230279126A1 (published 2023)

Experiments:
[1] = molecular target: T1, extracellular domain of human IL23R (hIL23R ECD) (human, UniProt Q5VWK5 24-355); assay: periplasmic extract ELISA (PE-ELISA) of phage clones, colorimetric
T1 construct: The immunogen was an ECD-human IgG1 hinge-Fc fusion
T1 sequence: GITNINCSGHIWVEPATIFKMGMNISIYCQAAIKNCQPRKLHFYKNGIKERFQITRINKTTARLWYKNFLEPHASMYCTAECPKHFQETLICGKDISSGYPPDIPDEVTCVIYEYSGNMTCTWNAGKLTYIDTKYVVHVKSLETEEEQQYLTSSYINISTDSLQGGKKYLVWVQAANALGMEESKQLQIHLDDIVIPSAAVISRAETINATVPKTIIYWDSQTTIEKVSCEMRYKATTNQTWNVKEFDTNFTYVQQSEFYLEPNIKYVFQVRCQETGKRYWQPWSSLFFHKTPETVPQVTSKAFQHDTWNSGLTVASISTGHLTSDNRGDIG
Summary of the method: (§1)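 VHH domains were obtained from camels immunized sequentially with human and mouse receptor extracellular domain–Fc fusion proteins, then cloned with a his-tag into a phagemid in E. coli. The phage library was panned over several rounds on the human or mouse extracellular domain, and single clones were checked for selective binding by colorimetric periplasmic extract ELISA.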

[2] = molecular target: T2, extracellular domain of mouse IL12RB1 (mIL12Rb1 ECD) (mouse, UniProt Q60837 20-565); assay: as above
T2 construct: The immunogen was a fusion of the ECD with the human IgG1 hinge and Fc; also called mIL12Rb1 ECD antigen
T2 sequence: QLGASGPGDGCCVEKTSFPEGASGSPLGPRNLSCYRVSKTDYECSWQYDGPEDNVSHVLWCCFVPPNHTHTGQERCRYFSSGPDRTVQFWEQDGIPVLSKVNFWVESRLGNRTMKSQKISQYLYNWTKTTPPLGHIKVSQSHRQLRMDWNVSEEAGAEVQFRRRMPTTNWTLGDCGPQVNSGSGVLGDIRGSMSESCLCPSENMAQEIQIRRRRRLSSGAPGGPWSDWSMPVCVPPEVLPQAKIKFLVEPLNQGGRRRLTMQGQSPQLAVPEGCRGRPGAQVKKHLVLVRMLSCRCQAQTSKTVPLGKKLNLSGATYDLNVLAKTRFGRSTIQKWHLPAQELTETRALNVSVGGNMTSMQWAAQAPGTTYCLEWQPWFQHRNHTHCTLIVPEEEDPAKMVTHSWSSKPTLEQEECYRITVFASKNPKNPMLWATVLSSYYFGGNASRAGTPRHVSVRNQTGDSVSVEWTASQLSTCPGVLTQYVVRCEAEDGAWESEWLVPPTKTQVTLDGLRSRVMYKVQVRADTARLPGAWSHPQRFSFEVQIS
Summary of the method: as §1

Binder | binding result [1] | binding result [2]
hIL23R_VHH1 (VHH, Phagemid clone with his-tag, periplasmic extract) VHH: QVQLQESGGGSVQAGGSLRLSCAASGYTYCSYDMSWYRQAPGKKREFVSAFNSDGTTSYADSVKGRFTISQDKAKNTVYLQMNSLKPEDTAMYYCKTDPHVQSSGGYCPPYWGQGTQVTVSS | binds | –
hIL23R_VHH5 (VHH, Phagemid clone with his-tag, periplasmic extract) VHH: QVQLQESGGGSVQAGGSLRLSCAASGYTYCSYDMSWYRQAPGKKREFVSAIASDGSTSYADSLKGRFTISQDNAKNTVYLQMNSLKPEDTAMYYCKTDPHVQSSGGYCPPYWGQGTQVTVSS | binds | –
hIL23R_VHH6 (VHH, Phagemid clone with his-tag, periplasmic extract) VHH: QVQLQESGGGLVQPGGSLRLSCAASGYTYCSYDMGWYRQAPGKKRKFVSSINSDGTTSYADSVKGRFTISQDNAKNTVYLQMNSLKPEDTAMYYCKTDPQTRPGKPCADYWGQGTQVTVSS | binds | –
hIL23R_VHH9 (VHH, Phagemid clone with his-tag, periplasmic extract) VHH: QVQLQESGGGLVQAGGSLRLSCAASGYTYCSYDMSWYRQAPGKERKFVSSINSDGTTSYADSVKGRFTISQDNAKNTVYLQMNSLKPEDTAMYYCKTDPQTRPGKPCADYWGQGTQVTVSS | binds | –
hIL23R_VHH10 (VHH, Phagemid clone with his-tag, periplasmic extract) VHH: QVQLQESGGGSVQAGGSLKLSCAASGYTYCNYDIAWYRQAPGKERKFVSAIASDGSTSYADSVKGRFTISQDNAKNTVYLQMNSLKPEDTAMYYCKTDPIATMTRRCDPYWGQGTQVTVSS | binds | –
hIL23R_VHH11 (VHH, Phagemid clone with his-tag, periplasmic extract) VHH: QVQLQESGGGSVQAGGSLRLSCAASGYTYCSYDMTWYRQAPGKKREFVSAIDSDGSTSYADSVKGRFTISQDNAKNTVYLQMNSLKPEDTAMYYCKTDPIATISRRCDSYWGQGTQVTVSS | binds | –
hIL23R_VHH18 (VHH, Phagemid clone with his-tag, periplasmic extract) VHH: QVQLQESGGGSVQAGGSLRLACAASGYTYCNYDIAWYRQAPGKERKFVSAIASDGSTSYADSVKGRFTISQDNAKNTVYLQMNSLKPEDTAMYYCKTDPIATMTRRCDPYWGQGTQVTVSS | binds | –
hIL23R_VHH7 (VHH, Phagemid clone with his-tag, periplasmic extract) VHH: QVQLQESGGGSVQAGGSLRLSCAASGYTYCNYDIAWYRQAPGKERKFVSAIASDGITSYADSVKGRFTISQDNAKNTVYLQMNSLKPEDTAMYYCKTDPISTITRICDPYWGQGTQVTVSS | binds | –
hIL23R_VHH16 (VHH, Phagemid clone with his-tag, periplasmic extract) VHH: QVQLQESGGGSVEAGGALTLSCVASGYTYCNYDIAWYRQAPGKERKFVSAIASDGSTSYADSVKGRFTISQDNAKNTVYLQMNSLKPEDTAMYYCKTDPIATMTRRCDPYWGQGTQVTVSS | binds | –
mIL12Rb1_VHH5 (VHH, Phagemid clone with his-tag, periplasmic extract) VHH: QVQLQESGGGSVQAGETLRLSCTVSGFTIDDSEMGWYRQAPGHECELVASGSSDDDTYYVDSVKGRFTISLDNAKNMVYLQMNSLKPEDTAVYYCATGPTYPPKDGDCAHWGQGTQVTVSS | – | binds
mIL12Rb1_VHH4 (VHH, Phagemid clone with his-tag, periplasmic extract) VHH: QVQLQESGGGSVQAGGSLRLSCAASRYTYTNNFMAWFRQAPGKEREGVAAIYTGDGYAYYFDSVKGRFTISQDNDKNMLYLQMNSLKPEDTAMYYCAAMERRSGRRRMTENAEYKYWGQGTQVTVSS | – | binds
mIL12Rb1_VHH12 (VHH, Phagemid clone with his-tag, periplasmic extract) VHH: QVQLQESGGGSVQAGGSLRLSCAASRYTYTNNFMAWFRQAPGKEREGVAAIYTGDGYAYYFYSVKGRFTISQDNDENMLYLQMNSLKPEDTAMYYCAAMERRIGTRRMTENAEYKYWGQGTQVTVSS | – | binds
hIL23R_VHH2 (VHH, Phagemid clone with his-tag, periplasmic extract) VHH: QVQLQESGGGSVQAGGSLRLSCAASGYTYCSYDMSWYRQAPGKKREFVSSFNSDGSTSYADSVKGRFTISQDNAKNTVYLQMNSLKPEDTAMYYCKTDPHADWGAPCGGDYWGQGTQVTVSS | binds | –
hIL23R_VHH4 (VHH, Phagemid clone with his-tag, periplasmic extract) VHH: QVQLQESGGGSVQAGGSLRLSCAASGSTYCTYDMTWYRQAPGKRREFVSAINSDGSTSYADSVKGRFTISQDNAKNTVYLQMNSLKPEDTAMYYCKTDPNSGWGAPCGGDYWGQGTQVTVSS | binds | –
mIL12Rb1_VHH9 (VHH, Phagemid clone with his-tag, periplasmic extract) VHH: QVQLQESGGGSVQAGGSLRLSCVASGYGYCGYDMSWYRQAPGKEREFVALITSDRSISYEDSVKARFIISRDNAANTGYLDMTRLTPDDTAIYYCKTSAAARESSWCRSRYRVASWGQGTQVTVSS | – | binds
mIL12Rb1_VHH11 (VHH, Phagemid clone with his-tag, periplasmic extract) VHH: QVQLQESGGGSVQAGGSLRLSCVASGYSYCGYDMMWYRQAPGKEREFVALITSDYSIRYEDSVEGRFSISRDNAKNTGYLLMSNLTPADTAIYYCKTSTAARESSWCRSRYRVASWGQGTQVTVSS | – | binds
mIL12Rb1_VHH19 (VHH, Phagemid clone with his-tag, periplasmic extract) VHH: QVQLQESGGGSVQAGGFLRLSCVASGYGYCGYDMSWYRQVPGKEREFVALITSDRSVSYEDSVKGRFSISRDNAKNTAYLEMNRLTPDDTAIYYCKTSTAARENNWCRSRYRIASWGQGTQVTVSS | – | binds
mIL12Rb1_VHH20 (VHH, Phagemid clone with his-tag, periplasmic extract) VHH: QVQLQESGGGSVQAGGSLRLSCVASGYGYCGYDMSWYRQTPGKEREFVALITSDRIASYEDSVKGRFIISRDNAKNTGYLDMTRVTPDDTAIYYCKTSAAARENSWCRSRYRVASWGQGTQVTVSS | – | binds
mIL12Rb1_VHH8 (VHH, Phagemid clone with his-tag, periplasmic extract) VHH: QVQLQESGGGSVQAGGFLRLSCVASGYGYCGYDMSWYRQAPGKEREFVALITSERVISYEDSVKGRFSISRDNAENTGYLEMNRLTPDDTAIYYCKTSAAARESSWCRSRYRVASWGQGTQVTVSS | – | binds
mIL12Rb1_VHH15 (VHH, Phagemid clone with his-tag, periplasmic extract) VHH: QVQLQESGGGSVQAGGFLRLSCVASGYGYCGYDMSWYRQVPGKEREFVALITSDRSVSYEDSVKGRFSISRDNAKNTAYLEMNRLTPDDTAVYYCKTSTAARENNWCRSRYRIAYWGQGTQVTVSS | – | binds
hIL23R_VHH13 (VHH, Phagemid clone with his-tag, periplasmic extract) VHH: QVQLQESGGGSVQAGGSLRLSCAASGYTYCSYDMKWYRQAPGKKREFVSAIDSDGSTSYADSVKGRFTISQDNAKNTVYLQMNSLKPEDTAMYYCKTEGTIPVGVCPNYWGQGTQVTVSS | binds | –
hIL23R_VHH8 (VHH, Phagemid clone with his-tag, periplasmic extract) VHH: QVQLQESGGDSVQAGGSLRLSCAASGYTYCSYDMKWYRQAPGKEREFVSGIDSDGSISYADSVKGRFTISQDNAKNTVYLQMNSLKPEDTAMYYCKTEGTIPVGACPNYWGQGTQVTVSS | binds | –
mIL12Rb1_VHH10 (VHH, Phagemid clone with his-tag, periplasmic extract) VHH: QVQLQESGGGSVQAGGSLRLSCAVSGYDYCGYDVRWYRQAPGKEREFVSGIDSDGSTSYADSVKGRFTISQDNAENTSYLHMFSLKPEDTAMYYCKTESPAGESAWCRNFRGMDYWGKGTQVTVSS | – | binds
hIL23R_VHH3 (VHH, Phagemid clone with his-tag, periplasmic extract) VHH: QVQLQESGGGSVQAGESLRLSCAASGYTYCTYDMTWYRQAPGKKREFVSGIHSDGTTSYADSVKGRFTISQDNAENTVYLQMNSLKPEDTAMYYCKTDPIATITRRCDSYWGQGTQVTVSS | binds | –
